This note sets out measurements from publication PMC8809517, “Cofactor-independent RNA editing by a synthetic S-type PPR protein”.

As a reminder, the Kd is the equilibrium constant for the complex coming apart.

What all share (test): high-throughput RNA pulldown from lysate on Ni-NTA beads; HRP: 50 mM Tris pH 8, 150 mM NaCl, 1 mM beta-mercaptoethanol, 50 ug/ml BSA, 3 ug/ml yeast RNA, 0.5% heparin; ITC and FP: Tris pH 8, 200 mM KCl, 5% glycerol; MST: 50 mM Tris pH 8, 200 mM NaCl, 1 mM DTT, BSA, heparin, 0.05% Tween 20
What all share (conditions): tags: N-terminal His-eGFP

Series [1] addresses T1, GFP-9S library array, motif 4 ND N98M;D124E (synthetic construct, N98M;D124E).
T1 chain: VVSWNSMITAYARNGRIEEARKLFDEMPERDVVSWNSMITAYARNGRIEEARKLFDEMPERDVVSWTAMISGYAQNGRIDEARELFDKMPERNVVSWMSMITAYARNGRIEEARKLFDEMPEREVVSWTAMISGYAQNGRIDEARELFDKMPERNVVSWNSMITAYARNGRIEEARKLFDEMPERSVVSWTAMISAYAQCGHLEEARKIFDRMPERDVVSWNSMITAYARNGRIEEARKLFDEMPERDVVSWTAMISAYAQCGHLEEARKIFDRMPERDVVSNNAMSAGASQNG

The target in series [2] is T2, GFP-9S library array, motif 4 ND N98G;D124K (synthetic construct, N98G;D124K).
T2 chain: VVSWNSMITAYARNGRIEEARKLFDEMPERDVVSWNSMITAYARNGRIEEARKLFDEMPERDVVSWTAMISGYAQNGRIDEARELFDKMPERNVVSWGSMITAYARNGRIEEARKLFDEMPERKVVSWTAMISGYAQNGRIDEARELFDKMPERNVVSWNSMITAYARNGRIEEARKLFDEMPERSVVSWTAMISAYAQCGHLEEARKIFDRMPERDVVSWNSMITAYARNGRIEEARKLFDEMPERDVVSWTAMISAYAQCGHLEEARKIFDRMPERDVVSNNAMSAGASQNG

Series [3] deals with T3, GFP-9S library array, motif 4 ND N98K;D124T (synthetic construct, N98K;D124T).
T3 chain: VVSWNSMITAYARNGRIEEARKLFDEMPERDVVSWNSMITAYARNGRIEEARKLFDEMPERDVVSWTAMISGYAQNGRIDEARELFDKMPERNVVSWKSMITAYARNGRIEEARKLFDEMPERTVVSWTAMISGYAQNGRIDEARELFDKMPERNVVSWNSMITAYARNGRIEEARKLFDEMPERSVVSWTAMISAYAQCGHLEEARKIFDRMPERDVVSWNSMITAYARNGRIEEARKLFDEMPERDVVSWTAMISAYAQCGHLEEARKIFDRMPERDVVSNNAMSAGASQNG

The target of series [4] is T4, GFP-9S library array, motif 4 ND N98R;D124S (synthetic construct, N98R;D124S).
T4 chain: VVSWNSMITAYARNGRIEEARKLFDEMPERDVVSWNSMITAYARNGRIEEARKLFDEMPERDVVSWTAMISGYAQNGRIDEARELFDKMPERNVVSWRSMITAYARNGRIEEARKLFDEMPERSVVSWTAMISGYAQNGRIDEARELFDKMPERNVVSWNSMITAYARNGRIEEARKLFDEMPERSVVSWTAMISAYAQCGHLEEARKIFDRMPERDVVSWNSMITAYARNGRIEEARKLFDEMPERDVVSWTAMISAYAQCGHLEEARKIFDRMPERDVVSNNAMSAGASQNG

Series [5] addresses T5, GFP-9S library array, motif 4 ND N98T;D124N (synthetic construct, N98T;D124N).
T5 chain: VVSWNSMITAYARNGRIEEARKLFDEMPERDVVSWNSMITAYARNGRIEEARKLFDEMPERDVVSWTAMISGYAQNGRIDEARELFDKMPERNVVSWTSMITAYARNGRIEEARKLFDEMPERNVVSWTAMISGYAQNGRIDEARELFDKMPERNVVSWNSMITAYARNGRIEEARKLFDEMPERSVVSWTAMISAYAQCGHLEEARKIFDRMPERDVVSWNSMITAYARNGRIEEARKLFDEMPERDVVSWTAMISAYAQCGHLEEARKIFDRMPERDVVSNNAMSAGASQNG

For the molecule AUUAUACGUGA (ssRNA) [IR-rpoA-U], the dissociation constant Kd in series [1] (label: 5' IRDye 800CW) amounted to 158 nM; in series [2] (label: 5' IRDye 800CW), 59.7 nM; in series [3] (label: 5' IRDye 800CW), 212 nM; in series [4] (label: 5' IRDye 800CW) it was 88.9 nM; in series [5] (label: 5' IRDye 800CW), 53.3 nM.
For AUUAAACGUGA (ssRNA) [IR-rpoA-A], the Kd was 264 nM in series [1] (label: 5' IRDye 800CW); 34.3 nM in series [2] (label: 5' IRDye 800CW); 211 nM in series [3] (label: 5' IRDye 800CW); 184 nM in series [4] (label: 5' IRDye 800CW); 8.35 nM in series [5] (label: 5' IRDye 800CW).
Take AUUACACGUGA (ssRNA) [Cy5-rpoA]: the equilibrium dissociation constant (Kd) was determined as 117 nM in series [1] (label: 5' Cy5); 103 nM in series [2] (label: 5' Cy5); 76.8 nM in series [3] (label: 5' Cy5); 72.7 nM in series [4] (label: 5' Cy5); 59.8 nM in series [5] (label: 5' Cy5).
With AUUAGACGUGA (ssRNA) [Cy5-rpoA-G], the Kd was found to be 89 nM in series [1] (label: 5' Cy5); 65.4 nM in series [2] (label: 5' Cy5); 83.6 nM in series [3] (label: 5' Cy5); 93.6 nM in series [4] (label: 5' Cy5); 59 nM in series [5] (label: 5' Cy5).
